Legend:
[1] = target: T1, G4P (artificial (RHAU-derived), UniProt Q9H2U1 53-75); assay: competition; competitor of FAM c-KIT/KRAS G4; EMSA: 20 mM Tris-HCl pH 7.4, 75 mM KCl, 1 mM EDTA, 0.4 mg/ml BSA, 10 nM DNA, 4 C (or 37 C), 1 h; dsDNA with 30% PEG 200; pull-down: 20 mM Tris-HCl pH 7.4, 150 mM KCl, 1 mM EDTA, 0.5% Triton X-100, 4 C; settings: protein: recombinant; tags: N-terminal HIS; C-terminal GTGSGA-3xFLAG; label: 5' FAM; parallel G4
T1 chain: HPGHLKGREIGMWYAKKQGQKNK

[2] = target: T1, G4P; assay: EMSA; K+; two distinct Kd values, numbers only in figure; EMSA: 20 mM Tris-HCl pH 7.4, 75 mM KCl, 1 mM EDTA, 0.4 mg/ml BSA, 10 nM DNA, 4 C (or 37 C), 1 h; dsDNA with 30% PEG 200; pull-down: 20 mM Tris-HCl pH 7.4, 150 mM KCl, 1 mM EDTA, 0.5% Triton X-100, 4 C; settings: protein: recombinant; tags: N-terminal HIS; C-terminal GTGSGA-3xFLAG; label: 5' FAM; parallel broken-strand G4
[3] = target: T1, G4P; assay: EMSA; K+; only 20% of DNA bound at saturation; low-nM Kd, number only in figure; EMSA: 20 mM Tris-HCl pH 7.4, 75 mM KCl, 1 mM EDTA, 0.4 mg/ml BSA, 10 nM DNA, 4 C (or 37 C), 1 h; dsDNA with 30% PEG 200; pull-down: 20 mM Tris-HCl pH 7.4, 150 mM KCl, 1 mM EDTA, 0.5% Triton X-100, 4 C; settings: protein: recombinant, tags: N-terminal HIS, C-terminal GTGSGA-3xFLAG, label: 5' FAM

AGGGCGGTGTGGGAAGAGGGAAGAGGGGGAGG (structured_DNA) [KRAS]
binding result [1]: binds

AAGGGAGGGCGGCGGGGCAGGGA (structured_DNA) [PDGFR-beta]
binding result [2]: binds

GGTTAGGGTTAGGGTTAGGGTTAGGGTTAG (structured_DNA) [Tel]
binding result ([3]; mixed parallel/antiparallel G4): binds

TTCGGGCGGGCGCGAGGGAGGGTTTT (structured_DNA) [c-KIT]
binding result [1]: binds

GGGGCCGGGGCCGGGGCCGGGGCC (structured_DNA) [C9orf72]
binding result ([3]; antiparallel G4, hairpin in equilibrium): binds
